# Measurements published in publication PMC6748131, “BFL1 modulates apoptosis at the membrane level through a bifunctional and multimodal mechanism showing key differences with BCLXL” (Cell Death and Differentiation, 2018).
# Positions count from the first letter of the chain named. Names may count otherwise.
# B1: BFL1ΔC (BFL1 lacking the C-terminal 24 residues, helix α9), Q16548 L21A (protein)
# chain: MTDCEFGYIYRLAQDYLQCVAQIPQPGSGPSKTSRVLQNVAFSVQKEVEKNLKSCLDNVNVVSVDTARTLFNQVMEKEFEDGIINWGRIVTIFAFEGILIKKLLRQQIAPDVDTYKEISYFVAEFIMNNTGEWIRQNGGWENGFVKKFE
# B2: BFL1ΔC (BFL1 lacking the C-terminal 24 residues, helix α9), Q16548 R88D (protein)
# chain: B1 chain with A21L, R88D
# B3: BFL1ΔC (BFL1 lacking the C-terminal 24 residues, helix α9) (domain or fragment)
# chain: B1 chain with A21L
# modifications: Alexa 488 (BFL1ΔCg) or Alexa 647 (BFL1ΔCr) label in FCCS, TIRF and GUV imaging, site not stated; unlabelled in SEC
# notes: BFL1 (BCL2A1) lacking the C-terminal 24 residues (helix α9, TA motif); Expressed from the vector pNIC28-Bsa4; Labelled (g, r) and unlabelled forms of the same construct are kept as one molecule; the assay's format tells which was used; also called BFL1ΔCg; BFL1ΔCr
# B4: BFL1ΔC R88D (domain or fragment)
# chain: B1 chain with A21L, R88D
# modifications: Alexa 488 (g) or Alexa 647 (r) label in FCCS, site not stated; unlabelled in SEC and in the GUV retrotranslocation assay
# notes: Same construct as m1 with one point mutation; also called BFL1ΔCg R88D; BFL1ΔCr R88D
# Columns and labels:
# [1] = biological target: T1, BFL1ΔC L21A, Q16548; experiment: TIRF single-molecule brightness analysis; conditions: chain shown with the change, 100% CL SLB, 0.5 nM BFL1∆Cg proteins, 1 h at room temperature, read off a plot
# T1 chain: B1 chain
# [2] = biological target: T1, BFL1ΔC L21A, Q16548; experiment: FCCS; conditions: chain shown with the change; 100% CL GUV; parent: est. 37; read off a plot
# [3] = biological target: T2, BFL1ΔC R88D, Q16548; experiment: TIRF single-molecule brightness analysis; conditions: chain shown with the change, 100% CL SLB, 0.5 nM BFL1∆Cg proteins, 1 h at room temperature, read off a plot
# T2 chain: B1 chain with A21L, R88D
# [4] = biological target: T2, BFL1ΔC R88D, Q16548; experiment: FCCS; conditions: chain shown with the change; 100% CL GUV; parent: est. 37; read off a plot
# [5] = biological target: the molecule itself; experiment: single-molecule TIRF brightness analysis; BFL1ΔCg 0.5 nM incubated with LUV 1 h at room temperature, supported lipid bilayers; apoptotic-like membranes
# [6] = biological target: the molecule itself; experiment: SEC; protein in the presence of 100%CL LUV
binder,measurement,setting,value
B1,other: occurrence of monomers (%),[1]; parent: est. 26,41%
same,other: occurrence of dimers (%),[1]; parent: est. 73,57%
same,"other: %CC (cross-correlation, FCCS)",[2],22%
B2,other: occurrence of monomers (%),[3]; parent: est. 26,27%
same,other: occurrence of dimers (%),[3]; parent: est. 73,71%
same,"other: %CC (cross-correlation, FCCS)",[4],35%
B3,stoichiometry N,[5],2
B4,binding result,[6],binds
